The supplement of paper PMC10567573

B1: ZNF649 (parent)
chain: YQAGKPDALTKLEQGEPLWTLEDE

Variants of: B1
Experiment: protein stability index of a GFP-peptide fusion (GPS, HEK-293T) (PSI 1-6); higher = more stable
Conditions: c terminus: a fixed tail appended
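Also: lentivirally expressed fusions sorted by FACS into six bins by GFP to DsRed ratio, PSI derived from sequencing read proportions per bin multiplied by bin number.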

Variant	protein stability index
YQAGKPDALTKLEQGEPLWTLDDE	4.6
YQAGKPDALTKLEQGEPLWTLGDE	3.88
YQAGKPDALTKLEQGEPLWTLIDE	3.75
YQAGKPDALTKLEQGEPLWTLQDE	3.5
YQAGKPDALTKLEQGEPLWTLADE	4.8
YQAGKPDALTKLEQGEPLWTLTDE	4.28
YQAGKPDALTKLEQGEPLWTLPDE	4.39
YQAGKPDALTKLEQGEPLWTLKDE	3.46
YQAGKPDALTKLEQGEPLWTLLDE	3.6
YQAGKPDALTKLEQGEPLWTLWDE	2.35
YQAGKPDALTKLEQGEPLWTLMDE	2.92
YQAGKPDALTKLEQGEPLWTLYDE	2.62
YQAGKPDALTKLEQGEPLWTLSDE	2.75
YQAGKPDALTKLEQGEPLWTLHDE	3.3
YQAGKPDALTKLEQGEPLWTLNDE	3.95
YQAGKPDALTKLEQGEPLWTLFDE	2.05
YQAGKPDALTKLEQGEPLWTLCDE	3.45
YQAGKPDALTKLEQGEPLWTLVDE	2.88
YQAGKPDALTKLEQGEPLWPLEDE	4.58
YQAGKPDALTKLEQGEPLWVLEDE	4.41
YQAGKPDALTKLEQGEPLWYLEDE	4.7
YQAGKPDALTKLEQGEPLWKLEDE	4.13
YQAGKPDALTKLEQGEPLWDLEDE	5.06
YQAGKPDALTKLEQGEPLWQLEDE	4.82

Variant	protein stability index
YQAGKPDALTKLEQGEPLWILEDE	3.96
YQAGKPDALTKLEQGEPLWCLEDE	2.62
YQAGKPDALTKLEQGEPLWHLEDE	4.57
YQAGKPDALTKLEQGEPLWELEDE	5.14
YQAGKPDALTKLEQGEPLWFLEDE	4.22
YQAGKPDALTKLEQGEPLWLLEDE	3.15
YQAGKPDALTKLEQGEPLWNLEDE	4.42
YQAGKPDALTKLEQGEPLWWLEDE	2.67
YQAGKPDALTKLEQGEPLWRLEDE	4.34
YQAGKPDALTKLEQGEPLWALEDE	3.73
YQAGKPDALTKLEQGEPLWGLEDE	4.24
YQAGKPDALTKLEQGEPLWMLEDE	5.05
YQAGKPDALTKLEQGEPLWSLEDE	3.73
YQAGKPDALTKLEQGEPLWTHEDE	5.03
YQAGKPDALTKLEQGEPLWTDEDE	4.89
YQAGKPDALTKLEQGEPLWTGEDE	4.4
YQAGKPDALTKLEQGEPLWTQEDE	4.23
YQAGKPDALTKLEQGEPLWTFEDE	4.42
YQAGKPDALTKLEQGEPLWTVEDE	2.31
YQAGKPDALTKLEQGEPLWTMEDE	3.88
YQAGKPDALTKLEQGEPLWTTEDE	4.37
YQAGKPDALTKLEQGEPLWTSEDE	4.52
YQAGKPDALTKLEQGEPLWTEEDE	5.3
YQAGKPDALTKLEQGEPLWTAEDE	4.47

Variant	protein stability index
YQAGKPDALTKLEQGEPLWTWEDE	3.52
YQAGKPDALTKLEQGEPLWTREDE	4.55
YQAGKPDALTKLEQGEPLWTCEDE	2.78
YQAGKPDALTKLEQGEPLWTNEDE	4.39
YQAGKPDALTKLEQGEPLWTIEDE	4.06
YQAGKPDALTKLEQGEPLWTKEDE	4.79
YQAGKPDALTKLEQGEPLWTYEDE	4.95
YQAGKPDALTKLEQGEPLWTLEDW	2.38
YQAGKPDALTKLEQGEPLWTLEDK	4.41
YQAGKPDALTKLEQGEPLWTLEDS	4.27
YQAGKPDALTKLEQGEPLWTLEDF	3.05
YQAGKPDALTKLEQGEPLWTLEDQ	4.02
YQAGKPDALTKLEQGEPLWTLEDM	3.88
YQAGKPDALTKLEQGEPLWTLEDC	3.49
YQAGKPDALTKLEQGEPLWTLEDI	3.42
YQAGKPDALTKLEQGEPLWTLEDL	3.53
YQAGKPDALTKLEQGEPLWTLEDT	4.42
YQAGKPDALTKLEQGEPLWTLEDR	4.48
YQAGKPDALTKLEQGEPLWTLEDN	4.27
YQAGKPDALTKLEQGEPLWTLEDD	4.71
YQAGKPDALTKLEQGEPLWTLEDG	3.87
YQAGKPDALTKLEQGEPLWTLEDV	3.42
YQAGKPDALTKLEQGEPLWTLEDP	4.32
YQAGKPDALTKLEQGEPLWTLEDY	3.29

Variant	protein stability index
YQAGKPDALTKLEQGEPLWTLEDA	3.74
YQAGKPDALTKLEQGEPLWTLEDH	4.04
YQAGKPDALTKLEQGEPLMTLEDE	4.87
YQAGKPDALTKLEQGEPLVTLEDE	5.72
YQAGKPDALTKLEQGEPLNTLEDE	5.2
YQAGKPDALTKLEQGEPLYTLEDE	5.24
YQAGKPDALTKLEQGEPLSTLEDE	5.57
YQAGKPDALTKLEQGEPLPTLEDE	5.62
YQAGKPDALTKLEQGEPLTTLEDE	5.61
YQAGKPDALTKLEQGEPLRTLEDE	4.69
YQAGKPDALTKLEQGEPLWTLETE	3.32
YQAGKPDALTKLEQGEPLWTLEPE	3.78
YQAGKPDALTKLEQGEPLWTLEFE	3.38
YQAGKPDALTKLEQGEPLWTLEME	2.99
YQAGKPDALTKLEQGEPLWTLECE	2.98
YQAGKPDALTKLEQGEPLWTLEGE	3.61
YQAGKPDALTKLEQGEPLWTLEYE	2.14
YQAGKPDALTKLEQGEPLWTLEHE	4.13
YQAGKPDALTKLEQGEPLWTLEWE	2.13
YQAGKPDALTKLEQGEPLWTLERE	4.16
YQAGKPDALTKLEQGEPLWTLEEE	4.57
YQAGKPDALTKLEQGEPLWTLELE	2.97
